Source: publication PMC9903292, “A Reductive Aminase Switches to Imine Reductase Mode for a Bulky Amine Substrate” (ACS Catalysis, 2023)

Columns and labels:
[1] = molecular target: T1, IR77 (wt-IR77) (Ensifer adhaerens, UniProt A0A0L8BGL4, A208N); experiment: X-ray crystallography; format: binding; settings: cofactor site at the dimer interface; P2_12_12_1, one open and one closed active site
T1 construct: gene AC244_29830; domain-swapped homodimer, two active sites at the interface

[2] = substrate: c1ccc2c(c1)CNC2; experiment: purified protein; settings: co-substrate 10 mM cyclohexanone, NADPH
[3] = substrate: C1CCNC1; experiment: purified protein; settings: NADPH
[4] = substrate: O=C1CCCCC1; experiment: UV spectrophotometry, NADPH oxidation; format: biochemical, Ensifer adhaerens; settings: co-substrate pyrrolidine b at constant concentration
[5] = substrate: O=C1CCCCC1; experiment: UV spectrophotometry, NADPH oxidation; format: biochemical, Ensifer adhaerens; settings: co-substrate pyrrolidine b at constant concentration; remark: listed apart in the source
Text: UV spectrophotometry, NADPH oxidation on IR77 (wt-IR77)

[6] = imine probably formed in solution and then reduced by the enzyme
[7] = co-substrate 10 mM cyclohexanone, reductive amination
[8] = reductive amination, 16 mM and kcat 0.25
[9] = imine probably formed in solution
[10] = co-substrate cyclohexanone at constant concentration

For NC(=O)c1ccc[n+]([C@@H]2O[C@H](COP(=O)(O)OP(=O)(O)OC[C@H]3O[C@@H](n4cnc5c(N)ncnc54)[C@H](OP(=O)(O)O)[C@@H]3O)[C@@H](O)[C@H]2O)c1 [NADP^+], the X-ray crystallography [1] was “electron density for the cofactor NADP^+ was again clearly visible within the active sites”.

B1: IR77 (wt-IR77) (Ensifer adhaerens) (protein)
chain: MKPSISVLGTGRMGSALARALLQAGYRTVVWNRTSEKAEPLAALGATVAPTVRQAIDASGIVIVNVSDYAATSTLLRASDVTPGLRGKLIVELTSGTPEGARETSQWTAAHGARYLDGAILATPDFIGTDAGTILLSGALEPFAANEDVFRALGGNVQHIGTEPGLANALDSAVLALMWGALFGGLHAIAVCRAEEIDLGELGRQWAATAPVVEGLVADLIKRTSAGRFVSDAETLSSISPHYGAFQHLKELMEARRIDRTVVDGYDAIFRRAIASGHLHDDFAALSQFMGKAEQP
notes: domain-swapped homodimer, two active sites at the interface
Work on B1 yielded a Km [2, 6] of 0.61 mM, a kcat [2, 6] of 0.30 s⁻¹ and a Km [3, 7] of 17 mM. The kcat [3, 7] was 0.12 s⁻¹, the kcat/Km [3, 7] was 7.2 M⁻¹ s⁻¹ and the Km [4, 8] was 15 mM. The kcat [4, 8] was 0.24 s⁻¹ and the kcat/Km [4, 8] was 16 M⁻¹ s⁻¹.

B2: IR77 (wt-IR77) (Ensifer adhaerens; A208N) (protein)
chain: MKPSISVLGTGRMGSALARALLQAGYRTVVWNRTSEKAEPLAALGATVAPTVRQAIDASGIVIVNVSDYAATSTLLRASDVTPGLRGKLIVELTSGTPEGARETSQWTAAHGARYLDGAILATPDFIGTDAGTILLSGALEPFAANEDVFRALGGNVQHIGTEPGLANALDSAVLALMWGALFGGLHAIAVCRAEEIDLGELGRQWANTAPVVEGLVADLIKRTSAGRFVSDAETLSSISPHYGAFQHLKELMEARRIDRTVVDGYDAIFRRAIASGHLHDDFAALSQFMGKAEQP
notes: as for B1
B2 was tested, and the Km [2, 9] was 0.94 mM, the kcat [2, 9] was 0.28 s⁻¹ and the Km [4] was 26 mM. The kcat [4] was 0.5 s⁻¹ and the kcat/Km [4] was 20 M⁻¹ s⁻¹.

B3: IR77 (wt-IR77) (Ensifer adhaerens; C192I) (protein)
chain: MKPSISVLGTGRMGSALARALLQAGYRTVVWNRTSEKAEPLAALGATVAPTVRQAIDASGIVIVNVSDYAATSTLLRASDVTPGLRGKLIVELTSGTPEGARETSQWTAAHGARYLDGAILATPDFIGTDAGTILLSGALEPFAANEDVFRALGGNVQHIGTEPGLANALDSAVLALMWGALFGGLHAIAVIRAEEIDLGELGRQWAATAPVVEGLVADLIKRTSAGRFVSDAETLSSISPHYGAFQHLKELMEARRIDRTVVDGYDAIFRRAIASGHLHDDFAALSQFMGKAEQP
notes: as for B1
Molecule B3 has a Km [3, 10] of 9.0 mM, a kcat [3, 10] of 0.1 s⁻¹ and a kcat/Km [3, 10] of 11 M⁻¹ s⁻¹. The Km [5] was 16 mM, the kcat [5] was 0.33 s⁻¹ and the kcat/Km [5] was 21 M⁻¹ s⁻¹.

B4: IR77 (wt-IR77) (Ensifer adhaerens; A119S) (protein)
chain: MKPSISVLGTGRMGSALARALLQAGYRTVVWNRTSEKAEPLAALGATVAPTVRQAIDASGIVIVNVSDYAATSTLLRASDVTPGLRGKLIVELTSGTPEGARETSQWTAAHGARYLDGSILATPDFIGTDAGTILLSGALEPFAANEDVFRALGGNVQHIGTEPGLANALDSAVLALMWGALFGGLHAIAVCRAEEIDLGELGRQWAATAPVVEGLVADLIKRTSAGRFVSDAETLSSISPHYGAFQHLKELMEARRIDRTVVDGYDAIFRRAIASGHLHDDFAALSQFMGKAEQP
notes: as for B1
B4 was tested, and the Km [3, 10] was 23 mM, the kcat [3, 10] was 0.09 s⁻¹ and the kcat/Km [3, 10] was 4 M⁻¹ s⁻¹. It also gave a Km [5] of 16 mM, a kcat [5] of 0.25 s⁻¹ and a kcat/Km [5] of 16 M⁻¹ s⁻¹.

B5: IR77 (wt-IR77) (Ensifer adhaerens; A208S) (protein)
chain: MKPSISVLGTGRMGSALARALLQAGYRTVVWNRTSEKAEPLAALGATVAPTVRQAIDASGIVIVNVSDYAATSTLLRASDVTPGLRGKLIVELTSGTPEGARETSQWTAAHGARYLDGAILATPDFIGTDAGTILLSGALEPFAANEDVFRALGGNVQHIGTEPGLANALDSAVLALMWGALFGGLHAIAVCRAEEIDLGELGRQWASTAPVVEGLVADLIKRTSAGRFVSDAETLSSISPHYGAFQHLKELMEARRIDRTVVDGYDAIFRRAIASGHLHDDFAALSQFMGKAEQP
notes: as for B1
In the case of B5, the Km [2, 9] is reported as 0.60 mM, the kcat [2, 9] is reported as 0.23 s⁻¹ and the Km [3, 10] is reported as 9.7 mM. The kcat [3, 10] was 0.21 s⁻¹, the kcat/Km [3, 10] was 22 M⁻¹ s⁻¹ and the Km ([4]; kcat 0.44) was 9.6 mM. The kcat ([4]; kcat 0.44) was 0.43 s⁻¹ and the kcat/Km ([4]; kcat 0.44) was 45 M⁻¹ s⁻¹.
